We go through 2 molecules from patent US20200368345A1.

This experiment deals with HLA-A*02:01 molecule (as used for thermal stability and structures) (human). Description: thermal stability of the peptide-HLA-A*02:01 complex.

Regarding NMLSTVLGV (modifications not checked) [PB1413-421 peptide], the Tm (temperature required to unfold 50% of the protein) of the pHLA-A*02:01 complex amounted to 72 ° C. The same measure for GLDNHTILL (modifications not checked) [BHA543-551 peptide]: 72 ° C.
